T1: recombinant N-terminal extracellular domain protein of human CD47 molecule (hCD47) (UniProt Q08722 19-135)
T1 chain: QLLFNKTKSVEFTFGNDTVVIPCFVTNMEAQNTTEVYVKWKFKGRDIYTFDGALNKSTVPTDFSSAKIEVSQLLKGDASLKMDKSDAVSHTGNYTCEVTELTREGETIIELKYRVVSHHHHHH

B1: h15G6 VH-v5/VK-v1 (antibody, V domains shown)
VH: QVQLVQSGAEVKKPGASVKVSCKASGYTFTDYYIHWVRQAPGQGLEWMGWIYPGSGNTKYNEKFQGRVTMTRDTSISTAYMELSSLRSDDTAVYYCARRREDSFDYWGQGTLVTVSS
VL: DIVMTQSPDSLAVSLGERATINCKSSQSLLYSSNQKNYLAWYQRKPGQPPKLLIYWASNRESGVPDRFSGSGSGTDFTLTISSLQAEDVAVYYCQQFYRYPLTFGQGTKVEIK
B2: h15G6 VH-v1/VK-v1 (antibody, V domains shown)
VH: B1 VH with V2I, M70L, R72V, I76S, A79V, Y95F, L112T, V113L
VL: B1 VL
B3: h15G6 VH-v7/VK-v1 (antibody, V domains shown)
VH: B1 VH with V11L, M70L, R72V, I76T, A79V
VL: B1 VL
B4: h15G6 VH-v7/VK-v2 (antibody, V domains shown)
VH: B1 VH with V11L, M70L, R72V, I76T, A79V
VL: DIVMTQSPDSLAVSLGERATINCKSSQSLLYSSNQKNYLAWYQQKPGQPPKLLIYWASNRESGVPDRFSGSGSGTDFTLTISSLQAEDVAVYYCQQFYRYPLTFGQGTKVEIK

Positions count from the first letter of the chain named.

The first test concerns the target T1, recombinant N-terminal extracellular …. In words: BLI; avid. Background: Biolayer interferometry detects binding as a change in optical thickness at a sensor tip.
As to B1, the equilibrium dissociation constant (Kd) is 0.2 nM.

As for B2, the equilibrium dissociation constant (Kd) came out at 0.41 nM.

With B3, the Kd is 0.6 nM.

In the case of B4, the Kd is 0.71 nM.

For a further test, the target named is T2, human CD47 on CCRF-CEM cells (CD47 positive cells) (human, UniProt Q08722 19-323). In words: FACS binding.
B1: the response was half-maximal at 0.0483 nM (EC50).

Molecule B2 showed an EC50 of 0.0602 nM.

Molecule B3 returned an EC50 of 0.0482 nM.

On to B4, for which the EC50 stood at 0.0488 nM.

In the next test the target is T1, recombinant N-terminal extracellular …. In words: ELISA blocking of CD47-SIRPα. On the technique in general: In an ELISA, binding on a coated surface is turned into a signal by an enzyme label.
For the molecule B1, the half-inhibitory concentration (IC50) came out at 0.118 nM.

For the molecule B2, the IC50 was 0.0942 nM.

On to B3, for which the IC50 worked out at 0.053 nM.

B4: the 50% inhibitory concentration (IC50) was 0.0843 nM.

The target is the same in the next test. In words: BLI; affinity.
As for B1, the Kd stood at 23 nM.

For B2, the dissociation constant (Kd) came out at 18 nM.

For B3, the Kd was 41 nM.

In the case of B4, the Kd was 56 nM.

The target is the same in a further test. Briefly: ELISA binding.
Take B1: the EC50 came to 0.0314 nM.

Turning to B2, the EC50 was determined as 0.092 nM.

B3: the EC50 came to 0.0283 nM.

As for B4, the concentration for a half-maximal effect (EC50) stood at 0.0229 nM.

In the next test the target is T2, human CD47 on CCRF-CEM cells (CD47 …). Briefly: FACS blocking of CD47-SIRPα.
B1 displayed an IC50 of 0.0488 nM.

B2 registered an IC50 of 0.0686 nM.

Molecule B3 yielded a half-maximal inhibitory concentration (IC50) of 0.134 nM.

B4 came in with an IC50 of 0.0397 nM.

By Kd is commonly meant the constant that tells how readily two partners part at equilibrium. What is called EC50 is the concentration giving half of the maximal effect. Broadly, the IC50 is the concentration at which inhibition is half-maximal.

(Values after patent publication US20210292412A1 (published 2021).)
